The values below come from IntAct's records for PubMed 12529400.

Sequences and labels used below:
B1: Homeodomain-interacting protein kinase 1 (Mus musculus), O88904 (parent)
chain: MASQLQVFSPPSVSSSAFCSAKKLKIEPSGWDVSGQSSNDKYYTHSKTLPATQGQASSSHQVANFNLPAYDQGLLLPAPAVEHIVVTAADSSGSAATATFQSSQTLTHRSNVSLLEPYQKCGLKRKSEEVESNGSVQIIEEHPPLMLQNRTVVGAAATTTTVTTKSSSSSGEGDYQLVQHEILCSMTNSYEVLEFLGRGTFGQVAKCWKRSTKEIVAIKILKNHPSYARQGQIEVSILSRLSSENADEYNFVRSYECFQHKNHTCLVFEMLEQNLYDFLKQNKFSPLPLKYIRPILQQVATALMKLKSLGLIHADLKPENIMLVDPVRQPYRVKVIDFGSASHVSKAVCSTYLQSRYYRAPEIILGLPFCEAIDMWSLGCVIAELFLGWPLYPGASEYDQIRYISQTQGLPAEYLLSAGTKTTRFFNRDPNLGYPLWRLKTPEEHELETGIKSKEARKYIFNCLDDMAQVNMSTDLEGTDMLAEKADRREYIDLLKKMLTIDADKRITPLKTLNHQFVTMSHLLDFPHSSHVKSCFQNMEICKRRVHMYDTVSQIKSPFTTHVAPNTSTNLTMSFSNQLNTVHNQASVLASSSTAAAATLSLANSDVSLLNYQSALYPSSAAPVPGVAQQGVSLQPGTTQICTQTDPFQQTFIVCPPAFQTGLQATTKHSGFPVRMDNAVPIVPQAPAAQPLQIQSGVLTQGSCTPLMVATLHPQVATITPQYAVPFTLSCAAGRPALVEQTAAVLQAWPGGTQQILLPSAWQQLPGVALHNSVQPAAVIPEAMGSSQQLADWRNAHSHGNQYSTIMQQPSLLTNHVTLATAQPLNVGVAHVVRQQQSSSLPSKKNKQSAPVSSKSSLEVLPSQVYSLVGSSPLRTTSSYNSLVPVQDQHQPIIIPDTPSPPVSVITIRSDTDEEEDNKYKPNSSSLKARSNVISYVTVNDSPDSDSSLSSPHPTDTLSALRGNSGTLLEGPGRPAADGIGTRTIIVPPLKTQLGDCTVATQASGLLSSKTKPVASVSGQSSGCCITPTGYRAQRGGASAVQPLNLSQNQQSSSASTSQERSSNPAPRRQQAFVAPLSQAPYAFQHGSPLHSTGHPHLAPAPAHLPSQPHLYTYAAPTSAAALGSTSSIAHLFSPQGSSRHAAAYTTHPSTLVHQVPVSVGPSLLTSASVAPAQYQHQFATQSYIGSSRGSTIYTGYPLSPTKISQYSYL

The variants in one test derive from B1. Particulars: with daxx_human DAXX.
With K219A, the “effect of a mutation on the interaction” value is recorded as “decreasing interaction”.

Variants of B1 are the subject of the next test. Particulars: with daxx_mouse Daxx.
For the variant K219A, the “effect of a mutation on the interaction” value is “decreasing interaction”.
